Experimental data as given in patent publication US20100204104A1.

Legend:
TGF-β1 [1] = target: TGF-β1 (UniProt P01137); experiment: SPR (Biacore), TGF-β1 on chip, HEK 293-produced sRII-9Gly 1.2-90 nM injected, 1:1 model
TGF-β1 [2] = target: TGF-β1 (UniProt P01137); experiment: cell-based or functional assay
TGF-β3 [3] = target: T1, TGF-β3 (UniProt P10600); experiment: cell-based or functional assay
T1 sequence (looked up): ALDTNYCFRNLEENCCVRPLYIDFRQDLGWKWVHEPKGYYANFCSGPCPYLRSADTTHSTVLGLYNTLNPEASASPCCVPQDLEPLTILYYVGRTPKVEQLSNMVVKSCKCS

TGF-β3 [4] = target: T1, TGF-β3; experiment: SPR (Biacore), TGF-β3 on chip, CHO-produced sRII-9Gly (lot 1) 1.2-90 nM injected, 1:1 model
TGF-β3 [5] = target: T1, TGF-β3; experiment: SPR (Biacore), TGF-β3 on chip, CHO-produced sRII-9Gly (lot 2) 1.2-90 nM injected, 1:1 model
TGF-β3 [6] = target: T1, TGF-β3; experiment: SPR (Biacore), TGF-β3 on chip, HEK 293-produced sRII-9Gly 1.2-90 nM injected, 1:1 model
TGF-β1 [7] = target: TGF-β1 (UniProt P01137); experiment: SPR (Biacore), TGF-β1 on chip, CHO-produced sRII-9Gly (lot 1) 1.2-90 nM injected, 1:1 model
TGF-β1 [8] = target: TGF-β1 (UniProt P01137); experiment: SPR (Biacore), TGF-β1 on chip, CHO-produced sRII-9Gly (lot 2) 1.2-90 nM injected, 1:1 model

UniProt P01137, sequence (P01137 279-390 limits assumed): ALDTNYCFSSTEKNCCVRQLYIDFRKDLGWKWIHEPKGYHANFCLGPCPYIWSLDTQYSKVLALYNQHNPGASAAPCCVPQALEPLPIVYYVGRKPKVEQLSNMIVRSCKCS

B1: sRII-9Gly fusion protein (receptor)
chain: IPPHVQKSVNNDMIVTDNNGAVKFPQLCKFCDVRFSTCDNQKSCMSNCSITSICEKPQEVCVAVWRKNDENITLETVCHDPKLPYHDFILEDAASPKCIMKEKKKPGETFFMCSCSSDECNDNIIFSEEYNTSNPDLHMGGGGGGGGGIDIPPHVQKSVNNDMIVTDNNGAVKFPQLCKFCDVRFSTCDNQKSCMSNCSITSICEKPQEVCVAVWRKNDENITLETVCHDPKLPYHDFILEDAASPKCIMKEKKKPGETFFMCSCSSDECNDNIIFSEEYNTSNPDL
Work on B1 yielded a Kd (TGF-β1 [1]) of 8.2 nM, a koff (TGF-β1 [1]) of 0.0011 s⁻¹ and an IC50 (nM), A549/IL-11 cell bioassay, CHO-produced sRII-9Gly Lot 9 (TGF-β1 [2]) of 0.02 nM. For the same binder, the IC50 (nM), A549/IL-11 cell bioassay, CHO-produced sRII-9Gly Lot 10 (TGF-β1 [2]) was 0.018 nM, the IC50 (nM), A549/IL-11 cell bioassay, CHO-produced sRII-9Gly Lot 11 (TGF-β1 [2]) was 0.014 nM and the IC50 (nM), A549/IL-11 cell bioassay, CHO-produced sRII-9Gly Lot 12 (TGF-β1 [2]) was 0.015 nM. For the same binder, the IC50 (nM), A549/IL-11 cell bioassay, CHO-produced sRII-9Gly Lot 13 (TGF-β1 [2]) was 0.016 nM, the IC50 (nM), A549/IL-11 cell bioassay, sRII-9Gly Lot 4 (TGF-β1 [2]) was 0.039 nM and the IC50 (nM), A549/IL-11 cell bioassay, sRII-9Gly Lot 5 (TGF-β1 [2]) was 0.053 nM. For the same binder, the IC50 (nM), A549/IL-11 cell bioassay, sRII-9Gly Lot 6 (pH 7.0) (TGF-β1 [2]) was 0.054 nM, the IC50 (nM), A549/IL-11 cell bioassay, sRII-9Gly Lot 7 (pH 8.5) (TGF-β1 [2]) was 0.062 nM and the IC50 (nM), A549/IL-11 cell bioassay, sRII-9Gly Lot 8 (pH 9.0) (TGF-β1 [2]) was 0.047 nM. The IC50 (ng/ml), A549/IL-11 cell bioassay, sRII-9Gly Lot 4 (TGF-β1 [2]) was 1.34 ng/mL, the IC50 (ng/ml), A549/IL-11 cell bioassay, sRII-9Gly Lot 5 (TGF-β1 [2]) was 1.8 ng/mL and the IC50 (ng/ml), A549/IL-11 cell bioassay, sRII-9Gly Lot 6 (pH 7.0) (TGF-β1 [2]) was 1.82 ng/ml. The IC50 (ng/ml), A549/IL-11 cell bioassay, sRII-9Gly Lot 7 (pH 8.5) (TGF-β1 [2]) was 2.12 ng/ml, the IC50 (ng/ml), A549/IL-11 cell bioassay, sRII-9Gly Lot 8 (pH 9.0) (TGF-β1 [2]) was 1.59 ng/ml and the IC50 (nM), A549/IL-11 cell bioassay, CHO-produced sRII-9Gly Lot 9 (TGF-β3 [3]) was 0.035 nM. The IC50 (nM), A549/IL-11 cell bioassay, CHO-produced sRII-9Gly Lot 10 (TGF-β3 [3]) was 0.29 nM, the IC50 (nM), A549/IL-11 cell bioassay, CHO-produced sRII-9Gly Lot 11 (TGF-β3 [3]) was 0.008 nM and the IC50 (nM), A549/IL-11 cell bioassay, CHO-produced sRII-9Gly Lot 12 (TGF-β3 [3]) was 0.07 nM. For the same binder, the IC50 (nM), A549/IL-11 cell bioassay, CHO-produced sRII-9Gly Lot 13 (TGF-β3 [3]) was 0.018 nM, the Kd (TGF-β3 [4]) was 5 nM and the koff (TGF-β3 [4]) was 0.00131 s⁻¹. The Kd (TGF-β3 [5]) was 6.8 nM, the koff (TGF-β3 [5]) was 0.00085 s⁻¹ and the Kd (TGF-β3 [6]) was 2.1 nM. For the same binder, the koff (TGF-β3 [6]) was 0.00034 s⁻¹, the Kd (TGF-β1 [7]) was 6.3 nM and the koff (TGF-β1 [7]) was 0.00117 s⁻¹. The Kd (TGF-β1 [8]) was 9.8 nM and the koff (TGF-β1 [8]) was 0.0011 s⁻¹.
